Measured values reported in patent US20140087995A1 (published 2014).
Numbered stars: 1 amine (or outer) side, 2 acyl side, 3 side chain; on linkers, the order of the positions; unused ones are H or OH. Bridge positions count the residues as written; N and C are the ends. Side chains are listed from the residue outwards. Ends that are not written are not given here. * marks the point of attachment. C20 diacid = O=C(O)CCCCCCCCCCCCCCCCCCC(=O)*; γGlu = O=C(O)[C@H](CCC(=O)[*:2])N[*:1]

T1: human amylin receptor (human calcitonin receptor co-expressed with RAMP-3; amylin 3(a) receptor) (human, UniProt P30988 25-474; O60896 24-148, limits assumed)
T1 construct: whole, on cells; Used as cell membranes prepared from Amylin 3(a)/CRE-luc BHK cells (Assay V), not as intact cells; also called hAmylin-R; hAmylinR
T1 sequence (looked up) 1: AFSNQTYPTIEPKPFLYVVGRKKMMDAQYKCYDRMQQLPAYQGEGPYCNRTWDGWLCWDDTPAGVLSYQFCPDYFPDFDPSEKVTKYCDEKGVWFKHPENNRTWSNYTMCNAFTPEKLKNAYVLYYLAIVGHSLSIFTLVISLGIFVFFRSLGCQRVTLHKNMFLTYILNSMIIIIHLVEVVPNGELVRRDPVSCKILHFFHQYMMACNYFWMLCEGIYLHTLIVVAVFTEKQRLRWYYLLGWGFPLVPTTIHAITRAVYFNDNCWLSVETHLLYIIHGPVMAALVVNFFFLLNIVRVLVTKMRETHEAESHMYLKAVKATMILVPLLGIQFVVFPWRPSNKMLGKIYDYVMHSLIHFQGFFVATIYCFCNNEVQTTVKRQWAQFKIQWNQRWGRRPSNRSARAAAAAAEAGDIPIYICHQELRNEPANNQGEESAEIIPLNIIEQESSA
T1 sequence (looked up) 2: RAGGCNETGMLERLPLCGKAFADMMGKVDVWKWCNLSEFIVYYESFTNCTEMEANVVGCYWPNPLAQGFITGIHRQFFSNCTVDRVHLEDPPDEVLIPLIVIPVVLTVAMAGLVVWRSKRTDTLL

T2: human calcitonin receptor (human, UniProt P30988 25-474)
T2 construct: whole, on cells; Used as cell membranes prepared from the transfected BHK cells (Assay VII), not as intact cells; also called hCTR; hCT
T2 sequence (looked up): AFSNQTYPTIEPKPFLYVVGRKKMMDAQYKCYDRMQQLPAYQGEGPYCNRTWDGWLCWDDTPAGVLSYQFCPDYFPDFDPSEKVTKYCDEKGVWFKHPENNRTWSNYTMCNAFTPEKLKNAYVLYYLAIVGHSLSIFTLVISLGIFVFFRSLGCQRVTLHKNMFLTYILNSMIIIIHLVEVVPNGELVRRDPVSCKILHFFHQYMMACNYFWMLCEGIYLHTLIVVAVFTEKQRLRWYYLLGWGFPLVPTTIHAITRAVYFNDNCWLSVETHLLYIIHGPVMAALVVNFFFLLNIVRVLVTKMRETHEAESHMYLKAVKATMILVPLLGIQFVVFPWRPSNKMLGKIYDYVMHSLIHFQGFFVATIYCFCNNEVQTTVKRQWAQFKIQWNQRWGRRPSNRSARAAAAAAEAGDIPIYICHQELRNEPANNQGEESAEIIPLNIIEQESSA


Tests used:
[1] = biological target: T1, human amylin receptor (human calcitonin …); test: ratio of hCTR binding IC50 to hAmylin-R binding IC50 (reference: human calcitonin receptor)
Summary of the method: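 Scintillation proximity competition binding on cell membranes at 35 ng/μL with SPA beads, in 50 mM Hepes pH 7.4, 1 mM CaCl2, 5 mM MgCl₂, 0.1% OA, 0.02% Tween20. Incubated 120 min at 25° C with shaking. IC₅₀ from one-site competition fit.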

[2] = biological target: T2, human calcitonin receptor; test: SPA competition against 125I-calcitonin, membranes with human calcitonin receptor (Assay VII)
Summary of the method: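 BHK hCTR membranes 35 ng/μL + SPA beads 0.05 mg/well; buffer 50 mM Hepes pH 7.4, 1 mM CaCl2, 5 mM MgCl₂, 0.1% OA, 0.02% Tween20. 120 min, 25° C., shaking. Scintillation count; IC50 by one-site binding competition.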

Ratio hCT/hAmylin binding [1]	IC50 [2] [nM]	Binder
45.5	18	K([γGlu-C20 diacid])CNTATCATQRLAHFLRHSSPNFGAIPSSTNVGSHTY-NH2 (disulfide 2-7; N-terminus assumed; SMILES CC[C@H](C)[C@H](NC(=O)[C@H](C)NC(=O)CNC(=O)[C@H](Cc1ccccc1)NC(=O)[C@H](CC(N)=O)NC(=O)[C@@H]1CCCN1C(=O)[C@H](CO)NC(=O)[C@H](CO)NC(=O)[C@H](Cc1c[nH]cn1)NC(=O)[C@H](CCCNC(=N)N)NC(=O)[C@H](CC(C)C)NC(=O)[C@H](Cc1ccccc1)NC(=O)[C@H](Cc1c[nH]cn1)NC(=O)[C@H](C)NC(=O)[C@H](CC(C)C)NC(=O)[C@H](CCCNC(=N)N)NC(=O)[C@H](CCC(N)=O)NC(=O)[C@@H](NC(=O)[C@H](C)NC(=O)[C@@H]1CSSC[C@H](NC(=O)[C@@H](N)CCCCNC(=O)CC[C@H](NC(=O)CCCCCCCCCCCCCCCCCCC(=O)O)C(=O)O)C(=O)N[C@@H](CC(N)=O)C(=O)N[C@@H]([C@@H](C)O)C(=O)N[C@@H](C)C(=O)N[C@@H]([C@@H](C)O)C(=O)N1)[C@@H](C)O)C(=O)N1CCC[C@H]1C(=O)N[C@@H](CO)C(=O)N[C@@H](CO)C(=O)N[C@H](C(=O)N[C@@H](CC(N)=O)C(=O)N[C@H](C(=O)NCC(=O)N[C@@H](CO)C(=O)N[C@@H](Cc1c[nH]cn1)C(=O)N[C@H](C(=O)N[C@@H](Cc1ccc(O)cc1)C(N)=O)[C@@H](C)O)C(C)C)[C@@H](C)O, also called compound 66)
63	6.17	K([γGlu-C20 diacid])CNTATCATQRLAHFLRHSSPNFGAIPSSTPVGSNTY-NH2 (disulfide 2-7; N-terminus assumed; SMILES CC[C@H](C)[C@H](NC(=O)[C@H](C)NC(=O)CNC(=O)[C@H](Cc1ccccc1)NC(=O)[C@H](CC(N)=O)NC(=O)[C@@H]1CCCN1C(=O)[C@H](CO)NC(=O)[C@H](CO)NC(=O)[C@H](Cc1c[nH]cn1)NC(=O)[C@H](CCCNC(=N)N)NC(=O)[C@H](CC(C)C)NC(=O)[C@H](Cc1ccccc1)NC(=O)[C@H](Cc1c[nH]cn1)NC(=O)[C@H](C)NC(=O)[C@H](CC(C)C)NC(=O)[C@H](CCCNC(=N)N)NC(=O)[C@H](CCC(N)=O)NC(=O)[C@@H](NC(=O)[C@H](C)NC(=O)[C@@H]1CSSC[C@H](NC(=O)[C@@H](N)CCCCNC(=O)CC[C@H](NC(=O)CCCCCCCCCCCCCCCCCCC(=O)O)C(=O)O)C(=O)N[C@@H](CC(N)=O)C(=O)N[C@@H]([C@@H](C)O)C(=O)N[C@@H](C)C(=O)N[C@@H]([C@@H](C)O)C(=O)N1)[C@@H](C)O)C(=O)N1CCC[C@H]1C(=O)N[C@@H](CO)C(=O)N[C@@H](CO)C(=O)N[C@H](C(=O)N1CCC[C@H]1C(=O)N[C@H](C(=O)NCC(=O)N[C@@H](CO)C(=O)N[C@@H](CC(N)=O)C(=O)N[C@H](C(=O)N[C@@H](Cc1ccc(O)cc1)C(N)=O)[C@@H](C)O)C(C)C)[C@@H](C)O, also called compound 62)
51.6	4.63	K([γGlu-C20 diacid])CNTATCATQRLAHFLRHSSPNFGAIPSSTNVGPNTY-NH2 (disulfide 2-7; N-terminus assumed; SMILES CC[C@H](C)[C@H](NC(=O)[C@H](C)NC(=O)CNC(=O)[C@H](Cc1ccccc1)NC(=O)[C@H](CC(N)=O)NC(=O)[C@@H]1CCCN1C(=O)[C@H](CO)NC(=O)[C@H](CO)NC(=O)[C@H](Cc1c[nH]cn1)NC(=O)[C@H](CCCNC(=N)N)NC(=O)[C@H](CC(C)C)NC(=O)[C@H](Cc1ccccc1)NC(=O)[C@H](Cc1c[nH]cn1)NC(=O)[C@H](C)NC(=O)[C@H](CC(C)C)NC(=O)[C@H](CCCNC(=N)N)NC(=O)[C@H](CCC(N)=O)NC(=O)[C@@H](NC(=O)[C@H](C)NC(=O)[C@@H]1CSSC[C@H](NC(=O)[C@@H](N)CCCCNC(=O)CC[C@H](NC(=O)CCCCCCCCCCCCCCCCCCC(=O)O)C(=O)O)C(=O)N[C@@H](CC(N)=O)C(=O)N[C@@H]([C@@H](C)O)C(=O)N[C@@H](C)C(=O)N[C@@H]([C@@H](C)O)C(=O)N1)[C@@H](C)O)C(=O)N1CCC[C@H]1C(=O)N[C@@H](CO)C(=O)N[C@@H](CO)C(=O)N[C@H](C(=O)N[C@@H](CC(N)=O)C(=O)N[C@H](C(=O)NCC(=O)N1CCC[C@H]1C(=O)N[C@@H](CC(N)=O)C(=O)N[C@H](C(=O)N[C@@H](Cc1ccc(O)cc1)C(N)=O)[C@@H](C)O)C(C)C)[C@@H](C)O, also called compound 67)
